Reference: PMC9505737

Tests used:
[1] = system: Immunoglobulin E (IgE), human myeloma (human); assay: cited; conditions: 10 mM Tris-HCl pH 9.0, no added salt in CE-LIF/NECEEM; temperature not stated; cited from earlier work
[2] = system: Immunoglobulin E (IgE), human myeloma (human); assay: NECEEM (CE-LIF); conditions: 25 nM DNA and 25 nM IgE, 10 mM Tris-HCl pH 9.0, no added salt in CE-LIF/NECEEM, temperature not stated

Sequence: GACTACCCGGGTATCTAATCCTGAAACATAGCATATTTACTTATGTCGCCTTGCCGGTTCTGCTGCCGCCCGTAGG [FITC-IgE-Apt (published IgE aptamer)]
- Kd [1]: 0.023 µM

Sequence: GACTACCCGGGTATCTAATCCGACCATTTTTCGTCTCCTTTGTACGAGCAGTGTGCTCGACCTGCCGCCCGTAGG [S2]
- Kd ([2]; alternative from both peaks, not adopted): 0.0346 µM
- Kd ([2]; alternative from sharp peak, not adopted): 0.0284 µM
- Kd ([2]; from broad peak (value adopted by authors)): 0.00155 µM

Sequence: GACTACCCGGGTATCTAATCCGCGTATGGTCATGGATGTGCATACACCCCGCCTATCAGAACTGCTGCCGCCCGTAGG [S1]
- Kd [2]: 0.00083 µM
